According to article PMC4922666, “L-Tryptophan Production in Escherichia coli Improved by Weakening the Pta-AckA Pathway” (PLoS ONE, 2016):

B1: Pta (phosphate acetyltransferase; EC 2.3.1.8) (Escherichia coli K-12) (protein)
chain: SRIIMLIPTGTSVGLTSVSLGVIRAMERKGVRLSVFKPIAQPRTGGDAPDQTTTIVRANSSTTTAAEPLKMSYVEGLLSSNQKDVLMEEIVANYHANTKDAEVVLVEGLVPTRKHQFAQSLNYEIAKTLNAEIVFVMSQGTDTPEQLKERIELTRNSFGGAKNTNITGVIVNKLNAPVDEQGRTRPDLSEIFDDSSKAKVNNVDPAKLQESSPLPVLGAVPWSFDLIATRAIDMARHLNATIINEGDINTRRVKSVTFCARSIPHMLEHFRAGSLLVTSADRPDVLVAACLAAMNGVEIGALLLTGGYEMDARISKLCERAFATGLPVFMVNTNTWQTSLSLQSFNLEVPVDDHERIEKVQEYVANYINADWIESLTATSERSRRLSPPAFRYQLTELARKAGKRIVLPEGDEPRTVKAAAICAERGIATCVLLGNPAEINRVAASQGVELGAGIEIVDPEVVRESYVGRLVELRKNKGMTETVAREQLEDNVVLGTLMLEQDEVDGLVSGAVHTTANTIRPPLQLIKTAPGSSLVSSVFFMLLPEQVYVYGDCAINPDPTAEQLAEIAIQSADSAAAFGIEPRVAMLSYSTGTSGAGSDVEKVREATRLAQEKRPDLMIDGPLQYDAAVMADVAKSKAPNSPVAGRATVFIFPDLNTGNTTYKAVQRSADLISIGPMLQGMRKPVNDLSRGALVDDIVYTIALTAIQSAQQQ
notes: full length, untagged by primers (NdeI/HindIII in pET24a, native stop codon), expressed in E. coli BL21(DE3), DEAE-Sepharose purified, about 77 kDa; variant Pta1 (P69L) is natural in E. coli CCTCC M 2016009
B2: Pta (phosphate acetyltransferase; EC 2.3.1.8) (Escherichia coli K-12; P69L) (protein)
chain: SRIIMLIPTGTSVGLTSVSLGVIRAMERKGVRLSVFKPIAQPRTGGDAPDQTTTIVRANSSTTTAAELLKMSYVEGLLSSNQKDVLMEEIVANYHANTKDAEVVLVEGLVPTRKHQFAQSLNYEIAKTLNAEIVFVMSQGTDTPEQLKERIELTRNSFGGAKNTNITGVIVNKLNAPVDEQGRTRPDLSEIFDDSSKAKVNNVDPAKLQESSPLPVLGAVPWSFDLIATRAIDMARHLNATIINEGDINTRRVKSVTFCARSIPHMLEHFRAGSLLVTSADRPDVLVAACLAAMNGVEIGALLLTGGYEMDARISKLCERAFATGLPVFMVNTNTWQTSLSLQSFNLEVPVDDHERIEKVQEYVANYINADWIESLTATSERSRRLSPPAFRYQLTELARKAGKRIVLPEGDEPRTVKAAAICAERGIATCVLLGNPAEINRVAASQGVELGAGIEIVDPEVVRESYVGRLVELRKNKGMTETVAREQLEDNVVLGTLMLEQDEVDGLVSGAVHTTANTIRPPLQLIKTAPGSSLVSSVFFMLLPEQVYVYGDCAINPDPTAEQLAEIAIQSADSAAAFGIEPRVAMLSYSTGTSGAGSDVEKVREATRLAQEKRPDLMIDGPLQYDAAVMADVAKSKAPNSPVAGRATVFIFPDLNTGNTTYKAVQRSADLISIGPMLQGMRKPVNDLSRGALVDDIVYTIALTAIQSAQQQ
notes: as for B1

Substrate: CC(=O)SCCNC(=O)CCNC(=O)[C@H](O)C(C)(C)COP(=O)(O)OP(=O)(O)OC[C@H]1O[C@@H](n2cnc3c(N)ncnc32)[C@H](O)[C@@H]1OP(=O)(O)O
Experiment: initial rates, Michaelis-Menten nonlinear regression
Format: biochemical, Escherichia coli
Settings: 100 mM phosphate buffer pH 7.4, 25°C, acetyl-CoA 20-400 μmol/L
Description: initial rates, Michaelis-Menten nonlinear regression on Pta (phosphate acetyltransferase; EC 2.3.1.8)

[1] = natural variant Pta1 from E. coli CCTCC M 2016009

Row | Protein | Km [µM] | kcat [s⁻¹] | kcat/Km [M⁻¹ s⁻¹] | Km [1] [µM] | kcat [1] [s⁻¹] | kcat/Km [1] [M⁻¹ s⁻¹]
1 | B1 | 89 ± 6.3 | 2380 ± 120 | 2.7e+07 ± 3.6e+06 | – | – | –
2 | B2 | – | – | – | 260 ± 13 | 1480 ± 74 | 5.7e+06 ± 500000
